Numbering of substitutions follows the chain as printed. Names may count otherwise.
T1: human CD20 on Ramos cells (human, UniProt P11836 1-297)
T1 construct: whole, on cells; also called MS4A1
T1 sequence (looked up): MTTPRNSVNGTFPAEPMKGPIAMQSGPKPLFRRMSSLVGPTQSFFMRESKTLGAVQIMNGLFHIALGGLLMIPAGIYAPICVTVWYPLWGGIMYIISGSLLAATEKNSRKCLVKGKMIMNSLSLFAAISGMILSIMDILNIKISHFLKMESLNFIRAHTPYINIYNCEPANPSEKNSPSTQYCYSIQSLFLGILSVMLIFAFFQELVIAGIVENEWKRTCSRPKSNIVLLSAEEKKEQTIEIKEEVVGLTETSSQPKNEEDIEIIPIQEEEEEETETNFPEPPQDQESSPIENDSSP

B1: RTX-MT clone 148 (antibody, human IgG1, kappa, V domains shown)
VH: QVQLQQPGAELVKPGASVKMSCKASGYTFTSYNMHWVKQTPGRGLEWIGAIYPGNGDTSYNQKFKGKATLTADKSSSTAYMQLSSLTSEDSAVYYCARSTYFGGDWYFNVWGAGTTVTVSA
VL: QIVLSQSPAILSASPGEKVTMTCRASSSVSYIHWFQQKPGSSPKPWIYATSNLASGVPVRFSGSGSGTSYSLTISRVEAEDAATYYCQQWTSNPPTFGGGTKLEIKR
notes: Biotinylated in the ELISAs
B2: RTX-MT clone 199 (antibody, human IgG1, kappa, V domains shown)
VH: B1 VH with F102Y, F108L
VL: B1 VL
notes: Biotinylated in the ELISAs
B3: RTX-MT clone 198 (antibody, human IgG1, kappa, V domains shown)
VH: B1 VH with F102Y, Y107C
VL: B1 VL
notes: Biotinylated in the ELISAs
B4: RTX-MT clone 164 (antibody, human IgG1, kappa, V domains shown)
VH: B1 VH with F102Y, G103C
VL: B1 VL
notes: Biotinylated in the ELISAs
B5: human complement protein C4B (other)
chain: KPRLLLFSPSVVHLGVPLSVGVQLQDVPRGQVVKGSVFLRNPSRNNVPCSPKVDFTLSSERDFALLSLQVPLKDAKSCGLHQLLRGPEVQLVAHSPWLKDSLSRTTNIQGINLLFSSRRGHLFLQTDQPIYNPGQRVRYRVFALDQKMRPSTDTITVMVENSHGLRVRKKEVYMPSSIFQDDFVIPDISEPGTWKISARFSDGLESNSSTQFEVKKYVLPNFEVKITPGKPYILTVPGHLDEMQLDIQARYIYGKPVQGVAYVRFGLLDEDGKKTFFRGLESQTKLVNGQSHISLSKAEFQDALEKLNMGITDLQGLRLYVAAAIIESPGGEMEEAELTSWYFVSSPFSLDLSKTKRHLVPGAPFLLQALVREMSGSPASGIPVKVSATVSSPGSVPEVQDIQQNTDGSGQVSIPIIIPQTISELQLSVSAGSPHPAIARLTVAAPPSGGPGFLSIERPDSRPPRVGDTLNLNLRAVGSGATFSHYYYMILSRGQIVFMNREPKRTLTSVSVFVDHHLAPSFYFVAFYYHGDHPVANSLRVDVQAGACEGKLELSVDGAKQYRNGESVKLHLETDSLALVALGALDTALYAAGSKSHKPLNMGKVFEAMNSYDLGCGPGGGDSALQVFQAAGLAFSDGDQWTLSRKRLSCPKEKTTRKKRNVNFQKAINEKLGQYASPTAKRCCQDGVTRLPMMRSCEQRAARVQQPDCREPFLSCCQFAESLRKKSRDKGQAGLQRALEILQEEDLIDEDDIPVRSFFPENWLWRVETVDRFQILTLWLPDSLTTWEIHGLSLSKTKGLCVATPVQLRVFREFHLHLRLPMSVRRFEQLELRPVLYNYLDKNLTVSVHVSPVEGLCLAGGGGLAQQVLVPAGSARPVAFSVVPTAATAVSLKVVARGSFEFPVGDAVSKVLQIEKEGAIHREELVYELNPLDHRGRTLEIPGNSDPNMIPDGDFNSYVRVTASDPLDTLGSEGALSPGGVASLLRLPRGCGEQTMIYLAPTLAASRYLDKTEQWSTLPPETKDHAVDLIQKGYMRIQQFRKADGSYAAWLSRGSSTWLTAFVLKVLSLAQEQVGGSPEKLQETSNWLLSQQQADGSFQDLSPVIHRSMQGGLVGNDETVALTAFVTIALHHGLAVFQDEGAEPLKQRVEASISKASSFLGEKASAGLLGAHAAAITAYALTLTKAPADLRGVAHNNLMAMAQETGDNLYWGSVTGSQSNAVSPTPAPRNPSDPMPQAPALWIETTAYALLHLLLHEGKAEMADQAAAWLTRQGSFQGGFRSTQDTVIALDALSAYWIASHTTEERGLNVTLSSTGRNGFKSHALQLNNRQIRGLEEELQFSLGSKINVKVGGNSKGTLKVLRTYNVLDMKNTTCQDLQIEVTVKGHVEYTMEANEDYEDYEYDELPAKDDPDAPLQPVTPLQLFEGRRNRRRREAPKVVEEQESRVHYTVCIWRNGKVGLSGMAIADVTLLSGFHALRADLEKLTSLSDRYVSHFETEGPHVLLYFDSVPTSRECVGFEAVQEVPVGLVQPASATLYDYYNPERRCSVFYGAPSKSRLLATLCSAEVCQCAEGKCPRQRRALERGLQDEDGYRMKFACYYPRVEYGFQVKVLREDSRAAFRLFETKITQVLHFTKDVKAAANQMRNFLVRASCRLRLEPGKEYLIMGLDGATYDLEGHPQYLLDSNSWIEEMPSERLCRSTRQRAACAQLNDFLQEYGTQGCQV
notes: also called enhancer protein
B6: rituximab (parental antibody) (antibody, human IgG1, kappa)
heavy: not shown
light: QIVLSQSPAILSASPGEKVTMTCRASSSVSYIHWFQQKPGSSPKPWIYATSNLASGVPVRFSGSGSGTSYSLTISRVEAEDAATYYCQQWTSNPPTFGGGTKLEIKRTVAAPSVFIFPPSDEQLKSGTASVVCLLNNFYPREAKVQWKVDNALQSGNSQESVTEQDSKDSTYSLSSTLTLSKADYEKHKVYACEVTHQGLSSPVTKSFNRGEC
notes: IgG1-type anti-CD20 antibody; Biotinylated when used as probe in the CA125 and CD20-peptide ELISAs; also called RTX; RTX-WT
B7: RTX-MT clone 166 (antibody, human IgG1, kappa)
heavy: not shown
light: B6 light
notes: Biotinylated in the ELISAs; also called N109D+P131S+S136Y; triple mutant RTX-MT clone 166
B8: RTX N109D (antibody, human IgG1, kappa)
heavy: not shown
light: B6 light
notes: also called RTX-MT N109D; RTX MT N109D
B9: RTX-MT N109D+S136Y (antibody, human IgG1, kappa)
heavy: not shown
light: B6 light

target: T2, human CA125/MUC16 protein (human, UniProt Q8WXI7 1-14451, limits assumed); test: ELISA, CA125-coated (15 KU/mL) and CD20 peptide-coated wells, biotinylated antibody
T2 construct: Soluble CA125 used at 15 KU/mL in ELISAs; also called soluble CA125
Description: FIG. 4. […] Each of these antibodies were biotinylated and retested for CD20 and CA125 binding via ELISA. Briefly, antibodies were biotinylated using the EZ-Link™ Sulfo-NHS-Biotin (ThermoScientific) following the manufacturer’s instructions. Biotinylated antibodies where quantified by Nanodrop and validated for signal intensity using an anti-IgG ELISA capture assay to measure the signal intensity for each antibody. […] Wells were washed and then secondarily probed with streptavidin-HRP and quantified using TMB substrate as described above on a Varioskan plate reader at 450 nm. […] Any signal greater than a 20% decrease in CA125 was considered positive.

percent decrease in CA125 binding vs parental (ratio of CD20 to CA125 binding), selection criterion [%] | Binder
> 20 | B1
> 20 | B2
> 20 | B3
> 20 | B4

target: T2, human CA125/MUC16 protein; test: direct binding ELISA, CA125-coated wells, biotinylated C4B

binding result | Binder
no binding | B5

target: T2, human CA125/MUC16 protein; test: cell-based or functional assay

suppression of CDC activity by CA125 (Daudi cells) [%] | Binder
32 | B6
≤ 15 | B1
≤ 15 | B2
≤ 15 | B3
≤ 15 | B4
≤ 15 | B7

target: T1, human CD20 on Ramos cells; test: cell-based fluorescent saturation binding on Ramos cells, Jurkat background subtracted, one-site nonlinear regression

Kd [nM] | Binder
20.6 | B6
30.5 | B8

target: T3, human CD16a (Fc-gamma activating receptor FCGR3A), biotinylated (human, UniProt P08637 17-208, limits assumed, biotinylated); test: CD16a ELISA, percentage of binding with CA125 versus no CA125 (FIG. 7A)
T3 construct: Soluble biotinylated probe in ELISA; construct not described; also called CD16a-biotin; Fc receptor
T3 sequence (P08637 17-208 limits assumed): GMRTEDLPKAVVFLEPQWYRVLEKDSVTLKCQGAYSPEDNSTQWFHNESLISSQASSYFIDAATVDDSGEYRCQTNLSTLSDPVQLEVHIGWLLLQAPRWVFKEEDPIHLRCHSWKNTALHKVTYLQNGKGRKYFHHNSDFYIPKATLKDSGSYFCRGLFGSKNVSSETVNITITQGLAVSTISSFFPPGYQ

binding result | Binder
binds | B9
binds | B7
